Reference: paper PMC4938799, “LD Motif Recognition by Talin: Structure of the Talin-DLC1 Complex” (Structure(London, England:1993), 2016)

Test system: paxillin-DDK
Assay: GST pull-down of transfected paxillin-DDK in 293 cells
Type: cell-based, human
Description: To investigate whether the biological effects of GST-R8 might be partly mediated via paxillin, we first confirmed that endogenous paxillin is expressed in cell lines A549, H358, and 293T (Figure S6A). […] As a positive control, HEK293 cells were co-transfected with a paxillin-DDK construct (OriGene) and GST-R8 (wild-type, R1544E and 2E mutants), followed by a GST pull-down assay.
Figure S6, related to figure 5. Binding of GST-talin R8 to endogenous paxillin is undetectable in A549 and H358 cells.
(A) The expression of endogenous paxillin in cell lines. Cell extracts were assayed by immunoblotting with anti-paxillin antibody. […]
NMR Spectroscopy - Spectra were processed with TopSpin (Bruker) and analysed using CCPN Analysis (Vranken et al., 2005). […] The changes in chemical shift of 15N-talin R8 domain were calculated from 1H,15N-HSQC spectra as Δδ=√(ΔδH2+(ΔδN*0.15)2). […]
Dissociation constants were evaluated from the 1H,15N-HSQC chemical shift changes in the titration experiments conducted using 0.1 mM 15N-talin R8 domain. […]
Concentrations of the DLC1 and RIAM peptides were determined from UV absorbance at 280 nm.
Concentrations of the paxillin peptide that lacks UV-active aromatic residues was determined by NMR from the comparison of the integral intensities of the well-separated signals of the methyl groups of the paxillin and RIAM peptides following the Eretic2 procedure of TopSpin (Bruker). […]

B1: GST-R8: GST-tagged talin R8, amino acids 1,453–1,580 (protein)
chain: NSQAGQQGLVEPTQFARANQAIQMACQSLGEPGCTQAQVLSAATIVAKHTSALCNSCRLASARTANPTAKRQFVQSAKEVANSTANLVKTIKALDGDFTEENRAQCRAATAPLLEAVDNLSAFASNPE
modifications: left off: GST, end not stated, kept
In the case of B1, the “binding of paxillin-DDK” value (293 cells co-transfected with paxillin-DDK and GST-R8, listed as GST-talin R8 wt) is reported as “formed a complex” and the “binding of paxillin-DDK” value (293 cells co-transfected with paxillin-DDK and GST-R8, listed as wild-type GST-R8) is reported as “did bind paxillin-DDK, and did so more efficiently than 2E GST-R8 talin mutant”.
